From patent publication US20240391954A1, “MC4R AGONIST PEPTIDES” (The Regents of the University of Michigan, priority 2021, published 2024)
Positions of bridges follow the written chain, without caps; N, C: chain ends. Non-standard residues stand in square brackets, D forms with d. NMeW = CN[C@@H](Cc1c[nH]c2ccccc12)C(=O)O; 2Nal = N[C@@H](Cc1ccc2ccccc2c1)C(=O)O; d2Nal = N[C@H](Cc1ccc2ccccc2c1)C(=O)O; d(αMeF) = C[C@@](N)(Cc1ccccc1)C(=O)O; NMeH = CN[C@@H](Cc1c[nH]cn1)C(=O)O; Cit = NC(=O)NCCC[C@H](N)C(=O)O; NMeA = CN[C@@H](C)C(=O)O; Nle = CCCC[C@H](N)C(=O)O; Aib = CC(C)(N)C(=O)O

B1: CTX-1281 (peptide)
peptide: Ac-RC[dA]R[dF][Cit][dW]C-NH2
modifications: disulfide 2-8
B2: CTX-1654 (peptide)
peptide: {CH2CO}-GR[dF]RFC-NH2
modifications: thioether N-6
SMILES: N=C(N)NCCC[C@@H]1NC(=O)CNC(=O)CSC[C@@H](C(N)=O)NC(=O)[C@H](Cc2ccccc2)NC(=O)[C@H](CCCNC(=N)N)NC(=O)[C@@H](Cc2ccccc2)NC1=O
B3: CTX-1270 (peptide)
peptide: Ac-RC[Aib]R[dF][Cit]WC-NH2
modifications: disulfide 2-8
B4: CTX-1649 (peptide)
peptide: {CH2CO}-[Aib][Cit][dF]RWC-NH2
modifications: thioether N-6
SMILES: CC1(C)NC(=O)CSC[C@@H](C(N)=O)NC(=O)[C@H](Cc2c[nH]c3ccccc23)NC(=O)[C@H](CCCNC(=N)N)NC(=O)[C@@H](Cc2ccccc2)NC(=O)[C@H](CCCNC(N)=O)NC1=O
B5: CTX-1265 (peptide)
peptide: Ac-RC[dA]R[dF]R[dF]C-NH2
modifications: disulfide 2-8
SMILES: CC(=O)N[C@@H](CCCNC(=N)N)C(=O)N[C@H]1CSSC[C@@H](C(N)=O)NC(=O)[C@@H](Cc2ccccc2)NC(=O)[C@H](CCCNC(=N)N)NC(=O)[C@@H](Cc2ccccc2)NC(=O)[C@H](CCCNC(=N)N)NC(=O)[C@@H](C)NC1=O
B6: CTX-1656 (peptide)
peptide: {CH2CO}-[dA]H[dF]RFC-NH2
modifications: thioether N-6
SMILES: C[C@H]1NC(=O)CSC[C@@H](C(N)=O)NC(=O)[C@H](Cc2ccccc2)NC(=O)[C@H](CCCNC(=N)N)NC(=O)[C@@H](Cc2ccccc2)NC(=O)[C@H](Cc2c[nH]cn2)NC1=O
B7: CTX-1653 (peptide)
peptide: {CH2CO}-GH[dF]RFC-NH2
modifications: thioether N-6
SMILES: N=C(N)NCCC[C@@H]1NC(=O)[C@@H](Cc2ccccc2)NC(=O)[C@H](Cc2c[nH]cn2)NC(=O)CNC(=O)CSC[C@@H](C(N)=O)NC(=O)[C@H](Cc2ccccc2)NC1=O
B8: CTX-1203 (peptide)
peptide: {CH2CO}-[dA][NMeH][dF]R[NMeW]C-NH2
modifications: thioether N-6
SMILES: C[C@H]1NC(=O)CSC[C@@H](C(N)=O)NC(=O)[C@H](Cc2c[nH]c3ccccc23)N(C)C(=O)[C@H](CCCNC(=N)N)NC(=O)[C@@H](Cc2ccccc2)NC(=O)[C@H](Cc2c[nH]cn2)N(C)C1=O
B9: CTX-1657 (peptide)
peptide: {CH2CO}-[dA]R[dF]RFC-NH2
modifications: thioether N-6
SMILES: C[C@H]1NC(=O)CSC[C@@H](C(N)=O)NC(=O)[C@H](Cc2ccccc2)NC(=O)[C@H](CCCNC(=N)N)NC(=O)[C@@H](Cc2ccccc2)NC(=O)[C@H](CCCNC(=N)N)NC1=O
B10: CTX-1269 (peptide)
peptide: Ac-RC[NMeA]R[dF]R[dW]C-NH2
modifications: disulfide 2-8
SMILES: CC(=O)N[C@@H](CCCNC(=N)N)C(=O)N[C@H]1CSSC[C@@H](C(N)=O)NC(=O)[C@@H](Cc2c[nH]c3ccccc23)NC(=O)[C@H](CCCNC(=N)N)NC(=O)[C@@H](Cc2ccccc2)NC(=O)[C@H](CCCNC(=N)N)NC(=O)[C@H](C)N(C)C1=O
B11: CTX-1651 (peptide)
peptide: {CH2CO}-[Aib]R[dF]RFC-NH2
modifications: thioether N-6
SMILES: CC1(C)NC(=O)CSC[C@@H](C(N)=O)NC(=O)[C@H](Cc2ccccc2)NC(=O)[C@H](CCCNC(=N)N)NC(=O)[C@@H](Cc2ccccc2)NC(=O)[C@H](CCCNC(=N)N)NC1=O
B12: CTX-1263 (peptide)
peptide: Ac-RC[dA]R[dF]R[dW]C-NH2
modifications: disulfide 2-8
SMILES: CC(=O)N[C@@H](CCCNC(=N)N)C(=O)N[C@H]1CSSC[C@@H](C(N)=O)NC(=O)[C@@H](Cc2c[nH]c3ccccc23)NC(=O)[C@H](CCCNC(=N)N)NC(=O)[C@@H](Cc2ccccc2)NC(=O)[C@H](CCCNC(=N)N)NC(=O)[C@@H](C)NC1=O
B13: CTX-1650 (peptide)
peptide: {CH2CO}-[Aib]H[dF]RFC-NH2
modifications: thioether N-6
SMILES: CC1(C)NC(=O)CSC[C@@H](C(N)=O)NC(=O)[C@H](Cc2ccccc2)NC(=O)[C@H](CCCNC(=N)N)NC(=O)[C@@H](Cc2ccccc2)NC(=O)[C@H](Cc2c[nH]cn2)NC1=O
B14: CTX-1264 (peptide)
peptide: Ac-RC[dA]R[dF]R[d2Nal]C-NH2
modifications: disulfide 2-8
B15: CTX-2128 (peptide)
peptide: Ac-[Nle]CH[2Nal]R[dW]CRFG-NH2
modifications: disulfide 2-7
SMILES: CCCC[C@H](NC(C)=O)C(=O)N[C@H]1CSSC[C@@H](C(=O)N[C@@H](CCCNC(=N)N)C(=O)N[C@@H](Cc2ccccc2)C(=O)NCC(N)=O)NC(=O)[C@@H](Cc2c[nH]c3ccccc23)NC(=O)[C@H](CCCNC(=N)N)NC(=O)[C@H](Cc2ccc3ccccc3c2)NC(=O)[C@H](Cc2c[nH]cn2)NC1=O
B16: CTX-1267 (peptide)
peptide: Ac-RCAR[dF]RWC-NH2
modifications: disulfide 2-8
SMILES: CC(=O)N[C@@H](CCCNC(=N)N)C(=O)N[C@H]1CSSC[C@@H](C(N)=O)NC(=O)[C@H](Cc2c[nH]c3ccccc23)NC(=O)[C@H](CCCNC(=N)N)NC(=O)[C@@H](Cc2ccccc2)NC(=O)[C@H](CCCNC(=N)N)NC(=O)[C@H](C)NC1=O
B17: CTX-1278 (peptide)
peptide: Ac-RC[dA]R[d(αMeF)]RWC-NH2
modifications: disulfide 2-8
SMILES: CC(=O)N[C@@H](CCCNC(=N)N)C(=O)N[C@H]1CSSC[C@@H](C(N)=O)NC(=O)[C@H](Cc2c[nH]c3ccccc23)NC(=O)[C@H](CCCNC(=N)N)NC(=O)[C@@](C)(Cc2ccccc2)NC(=O)[C@H](CCCNC(=N)N)NC(=O)[C@@H](C)NC1=O

These binders were tested against T1, human MC4R receptor (human, UniProt P32245 1-332) (assay: cell-based or functional assay).
T1 sequence (P32245 whole entry): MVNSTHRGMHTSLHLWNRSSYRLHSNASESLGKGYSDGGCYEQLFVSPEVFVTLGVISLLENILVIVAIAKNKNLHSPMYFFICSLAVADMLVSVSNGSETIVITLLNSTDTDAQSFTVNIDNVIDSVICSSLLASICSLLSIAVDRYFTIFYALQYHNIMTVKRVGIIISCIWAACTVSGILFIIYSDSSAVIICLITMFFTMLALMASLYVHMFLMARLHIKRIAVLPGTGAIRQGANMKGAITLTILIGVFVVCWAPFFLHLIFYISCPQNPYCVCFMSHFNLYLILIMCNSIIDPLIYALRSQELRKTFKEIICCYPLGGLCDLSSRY
In the case of B1, the “MC4R selectivity vs MC1R” value is reported as 0.44 and the “MC4R selectivity vs MC3R” value is reported as 0.29. B2 was tested, and the “MC4R selectivity vs MC1R” value was 0.62 and the “MC4R selectivity vs MC3R” value was 5.41. In the case of B3, the “MC4R selectivity vs MC1R” value is reported as 2.49 and the “MC4R selectivity vs MC3R” value is reported as 1.88. In the case of B4, the “MC4R selectivity vs MC1R” value is reported as 1650 and the “MC4R selectivity vs MC3R” value is reported as 72. With B5 the “MC4R selectivity vs MC1R” value was 0.02. For B6, the “MC4R selectivity vs MC1R” value was 1 and the “MC4R selectivity vs MC3R” value was 1.64. In the case of B7, the “MC4R selectivity vs MC1R” value is reported as 0.83 and the “MC4R selectivity vs MC3R” value is reported as over 8. B8 was tested, and the “MC4R selectivity vs MC1R” value was 2.32 and the “MC4R selectivity vs MC3R” value was 161. For B9, the “MC4R selectivity vs MC1R” value was 1.42 and the “MC4R selectivity vs MC3R” value was 3.56. For B10, the “MC4R selectivity vs MC1R” value was 2.56 and the “MC4R selectivity vs MC3R” value was 9.31. With B11 the “MC4R selectivity vs MC1R” value was 1.45 and the “MC4R selectivity vs MC3R” value was over 8. With B12 the “MC4R selectivity vs MC1R” value was 1.73 and the “MC4R selectivity vs MC3R” value was 1.62. In the case of B13, the “MC4R selectivity vs MC1R” value is reported as 0.95 and the “MC4R selectivity vs MC3R” value is reported as 53. In the case of B14, the “MC4R selectivity vs MC1R” value is reported as 0.14 and the “MC4R selectivity vs MC3R” value is reported as 0.29. With B15 the “MC4R selectivity vs MC3R” value was 0.01. With B16 the “MC4R selectivity vs MC1R” value was 0.5 and the “MC4R selectivity vs MC3R” value was 4.07. For B17, the “MC4R selectivity vs MC1R” value was 1.13 and the “MC4R selectivity vs MC3R” value was 12.

What follows are binders tested against human MC3R (human, UniProt P41968 1-323) (assay: cell-based or functional assay).
Sequence of human MC3R (P41968 whole entry): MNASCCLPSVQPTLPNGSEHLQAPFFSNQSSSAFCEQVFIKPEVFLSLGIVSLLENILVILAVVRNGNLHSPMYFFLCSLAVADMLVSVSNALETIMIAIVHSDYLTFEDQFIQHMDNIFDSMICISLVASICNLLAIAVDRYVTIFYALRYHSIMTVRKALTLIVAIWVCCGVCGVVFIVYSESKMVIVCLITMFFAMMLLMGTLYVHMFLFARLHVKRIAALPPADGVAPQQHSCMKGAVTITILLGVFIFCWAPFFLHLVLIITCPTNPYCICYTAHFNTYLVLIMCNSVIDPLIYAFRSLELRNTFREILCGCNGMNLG
For B1, the “% max activation” value was 44% and the “cAMP EC50” value was 28 nM. B2 was tested, and the “% max activation” value was 43% and the “cAMP EC50” value was 5890 nM. B3 was tested, and the “% max activation” value was 14% and the “cAMP EC50” value was 52 nM. B4 was tested, and the “% max activation” value was 79% and the “cAMP EC50” value was 479 nM. With B5 the “cAMP EC50” value was 29.9 nM. In the case of B6, the “% max activation” value is reported as 86% and the “cAMP EC50” value is reported as 2300 nM. For B7, the “cAMP EC50” value was over 10000 nM. B8 was tested, and the “% max activation” value was 107% and the “cAMP EC50” value was 2610 nM. In the case of B9, the “% max activation” value is reported as 30% and the “cAMP EC50” value is reported as 8810 nM. B10 was tested, and the “% max activation” value was 39% and the “cAMP EC50” value was 121 nM. For B11, the “cAMP EC50” value was over 10000 nM. For B12, the “% max activation” value was 69% and the “cAMP EC50” value was 11 nM. For B13, the “% max activation” value was 125% and the “cAMP EC50” value was 15200 nM. In the case of B14, the “% max activation” value is reported as 44% and the “cAMP EC50” value is reported as 3.7 nM. In the case of B15, the “% max activation” value is reported as 99% and the “cAMP EC50” value is reported as 39 nM. With B16 the “% max activation” value was 40% and the “cAMP EC50” value was 12 nM. B17 was tested, and the “% max activation” value was 86% and the “cAMP EC50” value was 418 nM.

Target: T1, human MC4R receptor
Assay: cell-based or functional assay
Remark: another data set of the same source
With B1 the “% max activation” value was 92% and the “cAMP EC50” value was 97 nM. For B2, the “% max activation” value was 81% and the “cAMP EC50” value was 1090 nM. In the case of B3, the “% max activation” value is reported as 98% and the “cAMP EC50” value is reported as 27 nM. For B4, the “% max activation” value was 97% and the “cAMP EC50” value was 6.6 nM. For B5, the “cAMP EC50” value was 703 nM. With B6 the “% max activation” value was 98% and the “cAMP EC50” value was 1400 nM. For B7, the “% max activation” value was 83% and the “cAMP EC50” value was 1220 nM. B8 was tested, and the “% max activation” value was 109% and the “cAMP EC50” value was 16 nM. For B9, the “% max activation” value was 78% and the “cAMP EC50” value was 2470 nM. For B10, the “% max activation” value was 92% and the “cAMP EC50” value was 13 nM. In the case of B11, the “% max activation” value is reported as 92% and the “cAMP EC50” value is reported as 1190 nM. For B12, the “% max activation” value was 93% and the “cAMP EC50” value was 6.5 nM. For B13, the “% max activation” value was 113% and the “cAMP EC50” value was 288 nM. In the case of B14, the “% max activation” value is reported as 80% and the “cAMP EC50” value is reported as 13 nM. In the case of B15, the “% max activation” value is reported as 87% and the “cAMP EC50” value is reported as 7210 nM. In the case of B16, the “% max activation” value is reported as 96% and the “cAMP EC50” value is reported as 3 nM. B17 was tested, and the “% max activation” value was 105% and the “cAMP EC50” value was 36 nM.
